Reference: patent US11680267B2, “Co-regulatory sequences based on tetracycline and Cumate” (Shenzhen Eureka Biotechnology Co., Ltd., priority 2020, dated 2023)

Test system: 293T(T&C)-TRE3GCuO-Luc cells and 293T(T&C)-TRE3GCuO-BGI-Luc cells
Experiment: Luciferase assay in stable cell lines under different combinations of DOX and Cumate (Example 5)
Assay type: cell-based
Settings: for induced transcription activity: 24 hours, stable cell line
Excerpt: In this Example, stable cell lines, under complex regulation of Tet-ON and Cumate, TRE3GCuO or TRE3GCuO-intron, and with Luciferase as the reporter gene, were constructed. Then, based on these cell lines, induced transcription activities of the reporter gene under the following 4 induction conditions were detected: without inducer, Cumate only, DOX only or both DOX and Cumate inducers. In this Example, the Luciferase reporter gene was taken as an example, and in principle, the method of the present disclosure was not affected by the nucleic acid fragment of interest. The specific experimental methods were as follows:
293T cells were seeded at 1.5E+06 cells per 60 mm culture dish, and cultured in DMEM (Sigam, D6429) complete medium supplemented with 10% FBS (ExCell, 11H116) at 37° C. and 5% CO 2. After 24 hours of culture, transfection was carried out according to the PEI method. During transfection, 500 μL of transfection reagent which contained 5.5 ug of total plasmid was added to each 60 mm culture dish, and the mass ratio of total plasmid to PEI MAX (Polysciences, 24765-1) was 1:4; and thereby 3 Luciferase stable cell lines were constructed. The transfection plasmids were transfected at the 19BF075:19BF229:18BF019 molar ratio of 5:5:1 to obtain 293T(T&C)-CMV-BGI-Luc cells; the transfection plasmids were transfected at the 19BF075:19BF235:18BF019 molar ratio of 5:5:1 to obtain 293T(T&C)-TRE3GCuO-Luc cells; the transfection plasmids were transfected at the 19BF075:19BF237:18BF019 molar ratio of 5:5:1 to obtain 293T(T&C)-TRE3GCuO-BGI-Luc cells. The plasmid and PEI MAX were mixed uniformly, and then put into a culture dish after standing for 15 minutes. 3 hours after transfection, the medium was changed to a complete DMEM medium, and the transfection operation was completed. After 24 hours of transfection, the cells were digested with trypsin and all seeded in a 100 mm culture dish (Corning, 430167), and 200 μg/ml of hygromycin (Sangon Biotech A600230-0001) drug screening was performed for at least three passages. After the growth of cells under the pressure of drug screening was consistent with that of the original 293T cells, the above 3 cells were diluted to 1 cell per well by a limiting dilution method and seeded in a 96-well plate; when the cells grew to about 50% of the bottom area of the well, the wells with strong EGFP green fluorescence intensity and uniform luminescence were selected under the fluorescence microscope, and 3 independent clones of each cell were selected for the following experiments.
For the above 3 cells, 3 independent clones for each cell were seeded into a 96-well plate (Corning 3916) at 2.5E+04 cells per well, with 8 wells per clone, and the medium was 100 microliters of DMEM complete medium. After 24 hours of culture, the medium was replaced and the following reagents were added into the duplicate wells of the 8 wells for each cell: (1) the same amount of medium, (2) Cumate at a final concentration of 200 ug/ml, (3) DOX at a final concentration of 1 ug/ml, or (4) DOX at a final concentration of 1 ug/ml and Cumate at a final concentration of 200 ug/ml. After 24 hours of further culture, relative light unit RLU of each well was detected using a Steady-Glo® Luciferase Assay System (Promega, E2610) kit according to the instruction (Promega, FB037), wherein the detection instrument was a fluorescence microplate reader (Perkin Elmer Victor V).

B1: TRE3GCuO: Tet-On (7xTetO of TRE3G) and Cumate complex response element, CuO 50 bp behind the TATA box (SEQ ID NO: 23) (nucleic acid)
DNA: TCCCTATCAGTGATAGAGAACGTATGAAGAGTTTACTCCCTATCAGTGATAGAGAACGTATGCAGACTTTACTCCCTATCAGTGATAGAGAACGTATAAGGAGTTTACTCCCTATCAGTGATAGAGAACGTATGACCAGTTTACTCCCTATCAGTGATAGAGAACGTATCTACAGTTTACTCCCTATCAGTGATAGAGAACGTATATCCAGTTTACTCCCTATCAGTGATAGAGAACGTATTAGGCGTGTACGGTGGGCGCCTATAAAAGCAGAGCTCGTTTAGTGAACCGTCAGATCGCCTGGAGCAATTCCACATACAAACAGACCAGATTGTCTGTTTGTT
modifications: TRE3GCuO50 response element sequence
- induced transcription activity (adding both DOX 1 ug/ml and Cumate 200 ug/ml): 7.54E+06 RLU
- induced transcription activity relative to no induction (adding both DOX and Cumate): 2381.05 times
- induced transcription activity relative to only adding Cumate (adding both DOX and Cumate): 552.99 times
- induced transcription activity relative to only adding DOX (adding both DOX and Cumate): 35.19 times
- maximum induced transcription activity as % of that of CMV promoter (both DOX and Cumate inducers added): 47.84%
- induced transcription activity relative to no induction (only adding Cumate): 4.31 times
- induced transcription activity (only adding Cumate 200 ug/ml): 1.36E+04 RLU
- induced transcription activity relative to no induction (only adding DOX): 67.66 times
- induced transcription activity relative to only adding Cumate (only adding DOX): 15.71 times
- induced transcription activity (only adding DOX 1 ug/ml): 2.14E+05 RLU
